test: soluble on expression in E. coli; label from the status in PepcDB or PDB records

Sequence | soluble on expression in E. coli
MAPSQPTQNAQTVSSVMTETPTYTSSSRSVESTAGTIAASEEATMTLLENSSGDPGSDSGGARYSLNSLKVSEQAAANAVLKAVLNDVSYQEFADSSYLEITGTPSADGTWGISFGGPSESASVEFSDGSISFSPVDMTVPATRLPQMGAFYETLTEEQLGMLETGLAVSTVDSSQQEMLLDLVSNSIGLADTETTATAISKIRATLSETYLFGTPDGLTLALSGPHVDFEVSHQGSTAKITYRDPSTDTLTAEDRVDTASVAAAPPEVVLEHHHHHH | soluble
MAQALWTRNKSEITDEEYKEFYKHIAHDFNDPLTWSHNRVEGKQEYTSLLYIPSQAPWDMWNRDHKHGLKLYVQRVFIMDDAEQFMPNYLRFVRGLIDSSDLPLNVSREILQDSTVTRNLRNALTKRVLQMLEKLAKDDAEKYQTFWQQFGLVLKEGPAEDFANQEAIAKLLRFASTHTDSSAQTVSLEDYVSRMKEGQEKIYYITADSYAAAKSSPHLELLRKKGIEVLLLSDRIDEWMMNYLTEFDGKPFQSVSKVDESLEKLADGDLGTLVPRGSMAISDPNSSSVDKLAAALEHHHHHH | soluble
MAQLYYRYGTMNSGKTIEILKVAYNYEEQGKGVVIMTSALDTRDGVGYVSSRIGMKRPALAIEETTDIFGYIRDLPEKPYCVLVDEAQFLKRHHVYDLARVVDELDIPVMAFGLKNDFRNELFEGSKYLLLLADKIDEIKTICQYCKKKATMVLRTQDGLPVYDGEQIQIGGNETYISVCRKHYFAPMITSNKEQNYDN | not soluble
MAQVRKAHPKDLAAIARLSHQTLFLGREGPKVFPSETLWGALFVAPYLEAGCCNLVAEEEGRVVGYILGACADRPLALAFAKRLLWALPRLLLGRFGPPLPHLRYLLRLLRYPGPKAPKDRYPAHLHIAVDPEAQGHGVGKALLAAFLKCLREKGVPGVQLATTRANRAARGLYRAMGFRVYAKRASPFWAPYLGRPLIHEVWVRDLG | soluble
MARAIWKGAISFGLVHIPVALNTAVRTERVDFDWLDKRSMEPVGYKRVNKVTGKEIDKDNIVKGVEFEKGRYVVISEEEIRKARPETTQTIDIFSFVEAGDIPLQHFDTPYYLTPDRRGGKVYALLRETLEKTGKVALATVVLHTRQHLALLRPLDHALVMITLRWPEEVRGLETLELDASVT | not soluble
MARFSGKVALITGSSNGIGRAAAILFAQQGAKVTITGRNAERLKETRHEIKKSGIPAENILAIVADVITDEGQMRLINDTVRKFGHLDILVNNAGGALMDAQGRVGMDQDISVFDNTMQINMRSVVTLVQKAKEHLIKSKGEIINVSAMAAGHHGDPIATFYGMSKAALDQFTRSSAISLIQHGVRVNSVSPGFTKTGFGEAMGFPPIAMKKVISFYESHKECAPSGAIAQPGDIAQVILFLADRTMSSYIIGQSIIADGGSSLVMGMHAHDMLDILKA | not soluble
MARIAGVEIPRNKRVDVALTYIYGIGKARAKEALEKTGINPATRVKDLTEAEVVRLREYVENTWKLEGELRAEVAANIKRLMDIGCYRGLRHRRGLPVRGQRTRTNARTRKGPRKTVAGKKKAPRK | soluble
MARIRARGSIPDINAYTGSNVTLKIHKDPLGPYRRITWLHTKNQKILEYNYNSTKTIFESEFKGRVYLEENNGALHISNVRKEDKGTYYMRVLRETENELKITLEVFDPV | soluble
MARKRIITPEKKELIRNLISEYNITSAKDLQEALKDLLGDTIQNMLEAELDEHLGYEKYESTEEAKSNYRNGYTSKTLKSSVGQVEIDIPRDRNAEFEPKIVPRYKRDISEIENKIIAMYARGMSTREINEQIQEIYGFEVSAEMVSKITDKILPEIEEWQKRPLGEVYPIVFIDAIHFSVKNDGIVGKKAIYIVLAIDIEGQKDVIGIYVGENESSKFWLSVLNDLKNRGVKDILILCADALSGIKDAINAAFPNTEYQRCIVHQIRNTLKYVSDKDRKEFARDLKRIYTAPNEKAGYDQMLEVSEKWEKKYPAAMKSWKSNWDVICPFFKYSEELRKIMYTTNTIESLNSSYRRINKSRTVFPGDQSLLKSIYLATVKITSKWTMRYKNWGLILGQLQIMFEGRI | not soluble
MARLLEEHGFETKTNVIVQGNCVEQEIDVVAERDGERYMIECKFHNIPVYTGLKEAMYTYARFLDVEKHGFTQPWIFTNTKFSEEAKKYAGCVGIKLTGWSYPEKEGIEVLLESKGLYPITILRIDKEVLDELVRAGLVFCRDVVSAGEEKLREIGLSAKKAREVIAEAKKVIG | soluble
MARMKFLCDTKRCIECNGCVTACKNENDDALEWGIQRRRVVTLNDGEPGENSISVACMHCTDAPCMAVCPADCFVHTEDGIVLHNKDLCIGCGYCLFACPFGAPQFPKQAAFGERGKMDKCTFCAGGPETEPGSEEERRKYGANRIAEGKLPMCASLCSTKALLAGDAEKISDIFRQRVVERGAKGAGWTNGEDLAYDATRS | not soluble
MARPRKPLLSTDRIVETARALVDAEGLAAVSTRRLAAELGVSGPSLYNHFRTKDEILEAVADSVSAQVDLSMFEDGREWRTALHDWAVSYRTALRDHPNIVPVLAHGPGRRPAALHLADAVYGAMVRAGWPAAQATSIGALMRYFVMGSALGSFAGGFVDDAGAYDPADYPHLQQAHLLAEQQEKIDERAFETGLTALLDGLAQQYAQVAQGV | not soluble
MARQKDTFYFEGFRRSADYACQAAKLLSEVMHDFNPGQLRERMDSMHAIEKSADEVRHDMMDELVTAFITPFDREDIDELGHVLDDVTDSIEGVLNRMYYDNVTDMRDDAVQMSDMVVRATESICELVNELPRFRHSKTLRELVFAINTIETDADHLFIESMRTLHTTCTDPLQVFAWHDVYRHLEQCSDDCERVANTIDSIVMKNSLEHHHHHH | soluble
MASAEVVSKLEAAFAKLQNASDCHSLLKKYLTKEVFDQLKGKQTKMGATLMDVIQSGVENLDSGIGVYAPDAESYTLFAALLDPIIEDYHKGFKPSDKQPPKDSGDLNTFIDVDPDKKYVISTRVRCGRSLEGYPFNPCLKKQQYEEMESRVKGQLESMSGELRGKYYPLTGMTKETQKQLIDDHFLFKEGDRFLQAAHACKFWPTGRGIYHNDAKTFLVWVNEEDHLRIISMQKGGNLKEVFGRLVTAVGVIEEKVKFSRDDRLGFLTFCPTNLGTTIRASVHIKLPKLGADRKKLEEVAAKYNLQVRGTAGEHSDSPDGVYDISNKRRLGLSEYEAVKEMQDGILELIKAEESAR | soluble
MASAVQAQHNVSDVSRMNVLFLMADDMRPELGCYGVEAVKTPNMDRLASSGVLFQNAYCNVPVSGASRASLLTGVYPHYPDRFVNFSAYASKDCPEAIPLSGWFTKNGYHTVSDGKVFHHMSDHAASWSEPPYRNHPDGYDVYWAEYNKWELWMNSESGKTINPKTMRGPFCESADVPDTAYDDGKLAERAIRDLRRMKEMNKPFFLACGFWKPHLPFNAPKKYWDLYKREEIPLASNRFRPEGLPEQVRNSSEIYAYARVTDTGDADFQREVKHGYYACLSYVDAQIGKVLDALDELGLAENTIVVLLGDHGWNLGEHDFVGKHNLMDRSTHVPLIIRVPGMKKGKTRSMVEFVDLYPTLCELCQIPQPAEQLDGQSFAKVFSNLKAKTKDEVYIQWEGGDNAVDQRFSYAEWMKGDVKKASMLFDHRIDKEENKNRVNEKKYKSKVESLSSFIKVKKSSLKKLEHHHHHH | not soluble
MASEGGNSNGGTSGTGTKSEQDPKEGKRFFNFVFNVNKKITDETEMTQDFMNDLKHYQEFDETVTKCAGYLENVFIPYSSKGSKPEEEAFTRLATALGDFKSFVPQAYTAIFENFSTKMKAAGVSRKCHQALQAHDLRHMKKFHTESYEAFVEQRKKFDESRKKMDQAKADVRDAKTTTAIEKKAICYQLTVDDFDQKTEELIKIIEALPKVKQEYVRDIYLILSKHKQFHADMSKFFAASCVL | not soluble
MASGTASTKIVIAGGFGSGKTTFVGAVSEIMPLRTEAMVTDASAGVDMLEATPDKRSTTVAMDFGRITLGEDLVLYLFGTPGQRRFWFMWDDLVRGAIGAIVLVDCRRLQDSFAAVDFFEHRNLPFLIAINEFDSAPRYPVSAVRDALTLPAHIPVINVDARNRRSATDALIAVSEYALATLSPLEHHHHHH | not soluble
MASISSLGVGSGLDLSSILDSLTAAQKATLTPISNQQSSFTAKLSAYGTLKSALTTFQTANTALSKADLFSATSTTSSTTAFSATTAGNAIAGKYTISVTHLAQAQTLTTRTTRDDTKTAIATSDSKLTIQQGGDKDPISIDISAANSSLSGIRDAINNAKAGVSASIINVGNGEYRLSVTSNDTGLDNAMTLSVSGDDALQSFMGYDASASSNGMEVSVAAQNAQLTVNNVAIENSSNTISDALENITLNLNDVTTGNQTLTITQDTSKAQTAIKDWVNAYNSLIDTFSSLTKYTAVDAGADSQNSSNGALLGDSTLRTIQTQLKSMLSNTVSSSNYKTLAQIGITTDPSDGKLELDADKLTAALKKDASGVGALIVGDGKKTGITTTIGSNLTSWLSTTGIIKAATDGVSKTLNKLTKDYNAASDRIDAQVARYKEQFTQLDVLMTSLNSTSSYLTQQFENNSNSK | not soluble
MASKITQPDKYSGFLNNYSDLKETTSATGKPVLRWVDPSFDQSKYDSIVWNPITYYPVPKPSTQVGQKVLDKILNYTNTEMKEAIAQRKPLVTTAGPRSLIFRGAITGVDTSKEGLQFYEVVPVALVVAGTQMATGHRTMDTRLYFEGELIDAATNKPVIKVVRQGEGKDLNNESTPMAFENIKQVIDDMATDATMFDVNKKLEHHHHHH | soluble
MASKKASGTLPPQQQVVHKVIMVGTGGVGKSALTLQFMYDEFVEEYEPTKADSYRKKVVLDGEECSIDILDTAGQEDYSAIRDNYYRSGEGFICVFSILDMESFEATNEFREQILRVKNSDSSVPIVLVGNKGDMRDQRVVSAELCRQRAEQWGCHYVETSAKRRENVDKVFYDLMREMKRRKGGSQAQTGIDASASSGRKKRSGIKKHCTIL | not soluble
MASKMDTETHYSDVWVVIPAFNEAAVIGKVVTDVRSVFDHVVCVDDGSTDGTGDIARRSGAHLVRHPINLGQGAAIQTGIEYARKQPGAQVFATFDGDGQHRVKDVAAMVDRLGAGDVDVVIGTRFGRPVGKASASRPPLMKRIVLQTGARLSRRGRRLGLTDTNNGLRVFNKTVADGLNITMSGMSHATEFIMLIAENHWRVAEEPVEVLYTEYSKSKGQPLLNGVNIIFDGFLRGRMPR | not soluble
MASMTGGQQMGRGSPNMLRKRQMTVLDLHPGSGKTRKILPQIIKDAIQQRLRTAVLAPTRVVAAEMAEALRGLPVRYQTSAVQREHQGNEIVDVMCHATLTHRLMSPNRVPNYNLFVMDEAHFTDPASIAARGYIATKVELGEAAAIFMTATPPGTTDPFPDSNAPIHDLQDEIPDRAWSSGYEWITEYAGKTVWFVASVKMGNEIAMCLQRAGKKVIQLNRKSYDTEYPKCKNGDWDFVITTDISEMGANFGASRVIDCRKSVKPTILEEGEGRVILGNPSPITSASAAQRRGRVGRNPNQVGDEYHYGGATSEDDSNLAHWTEAKIMLDNIHMPNGLVAQLYGPEREKAFTMDGEYRLRGEEKKNFLELLRTADLPVWLAYKVASNGIQYTDRKWCFDGPRTNAILEDNIEVEIVTRMGERKILKPRWLDARVYADHQALKWFKDFAAGKRHHHHHH | soluble
MASPRANDAPIVLLHGFTGWGREEMLGFKYWGGVRGDIEQWLNDNGYRTYTLAVGPLSSNWDRACEAYAQLVGGTVDYGAAHAAKHGHARFGRTYPGLLPELKRGGRVHIIAHSQGGQTARMLVSLLENGSQEEREYAKAHNVSLSPLFEGGHHFVLSVTTIATPHDGTTLVNMVDFTDRFFDLQKAVLKAAAVASNVPYTSQVYDFKLDQWGLRRQPGESFDHYFERLKRSPVWTSTDTARYDLSIPGAEKLNQWVQASPNTYYLSFSTERTHRGALTGNYYPELGMNAFSAVVCAPFLGSYRNEALGIDDRWLENDGIVNTVSMNGPKRGSSDRIVPYDGTLKKGVWNDMGTYNVDHLEVIGVDPNPSFDIRAFYLRLAEQLASLRP | soluble

Reference: the DeepSol protein solubility set
